One protein from PMC4766306, “CYP96T1 of Narcissus sp. aff. pseudonarcissus Catalyzes Formation of the Para-Para' C-C Phenol Couple in the Amaryllidaceae Alkaloids” (Frontiers in Plant Science, 2016) can be followed below.

Holding throughout (format): cell-based, Narcissus aff. pseudonarcissus MK-2014
Settings in all cases: heme

Substrate in data set [1]: COc1cc2c(cc1O)[C@@H](Cc1ccc(O)cc1)NCC2
The experiment in a line: LC-MS/MS enzyme kinetics with Sf9-expressed CYP96T1.

Substrate in data set [2]: COc1cc2c(cc1O)[C@H](Cc1ccc(O)cc1)NCC2
The description is as above.

Substrate in data set [3]: COc1ccc(CN(C)CCc2ccc(O)cc2)cc1O
The experiment in a line: LC-MS/MS enzyme kinetics with Sf9-expressed CYP96T1; CPR-only negative control.

Substrate in data set [4]: COc1ccc(CNCCc2ccc(O)cc2)cc1O
The description is as above.

B1: CYP96T1 (Narcissus aff. pseudonarcissus MK-2014) (protein)
chain: MATSSSAWLMFSDHYPEILIAIACFLIFSLLLSARSSSEDSLPYNWPIFGMLPAIISNNQFNDFTTARLRKMGWTFIFKGPWLLDMDYIFTCDPSNINHMFNDNFENYPKGELGKVFDIFGNNIFNADGDLWHDHRKMAQTILWDGNYRTMQATFIRNKMDNALIPILDSAASKRKPVDLQDVFFRFTFDTSCFSVLAADPESLTMEFPAVPFSKAADQALDAALTRHITPRLIWKLKRFFNVGSERTLAVAWKVIDSYIYDKIAELKAKRKLVGKINSYDAVSFYMDNFNIHDDKFLRDNAFTYLLAQRNTQSLTMTWLFYALFENPKVELKILSELKSIVDESSERKFNDGFALFDSNMIQSAIYLHATLCEALRIYPPVPFEIKDAHKADVLPSGHKVRAGEKILFSPYAMARMKGIWGDDCLEFKPERWITGNGTLKHEPAYKFFAFSAGPRICLGKELSFTQMKMVVATIIYNFHLQMVKGHVVEQSNSILMDMKHGLMVQVRKRSVM
notes: CYP96T1 ORF (GenBank KT693311) expressed in Sf9 cells, co-expressed with Eschscholzia californica CPR
Consider B1, for which the Michaelis-Menten constant (Km) worked out at 659 ± 104 µM in data set [1], 637 ± 156 µM in data set [2], 3.28 ± 2.27 µM in data set [3] and 1.13 ± 0.54 µM in data set [4]. For the same protein, the kcat is 0.0345 ± 0.00233 s⁻¹ in data set [1], 0.0223 ± 0.0025 s⁻¹ in data set [2], 0.0407 ± 0.009 s⁻¹ in data set [3] and 0.25 ± 0.0338 s⁻¹ in data set [4]. Also, the specificity constant (kcat/Km) in data set [1] amounted to 52.5 M⁻¹ s⁻¹; in data set [2], 35.2 M⁻¹ s⁻¹; in data set [3], 12400 M⁻¹ s⁻¹; in data set [4], 217000 M⁻¹ s⁻¹.
